# Tests used:
# [1] = target: T1, chimp FOXP2 (truncated, WT) (chimpanzee, UniProt Q8MJA0 215-716); assay: MITOMI
# T1 sequence: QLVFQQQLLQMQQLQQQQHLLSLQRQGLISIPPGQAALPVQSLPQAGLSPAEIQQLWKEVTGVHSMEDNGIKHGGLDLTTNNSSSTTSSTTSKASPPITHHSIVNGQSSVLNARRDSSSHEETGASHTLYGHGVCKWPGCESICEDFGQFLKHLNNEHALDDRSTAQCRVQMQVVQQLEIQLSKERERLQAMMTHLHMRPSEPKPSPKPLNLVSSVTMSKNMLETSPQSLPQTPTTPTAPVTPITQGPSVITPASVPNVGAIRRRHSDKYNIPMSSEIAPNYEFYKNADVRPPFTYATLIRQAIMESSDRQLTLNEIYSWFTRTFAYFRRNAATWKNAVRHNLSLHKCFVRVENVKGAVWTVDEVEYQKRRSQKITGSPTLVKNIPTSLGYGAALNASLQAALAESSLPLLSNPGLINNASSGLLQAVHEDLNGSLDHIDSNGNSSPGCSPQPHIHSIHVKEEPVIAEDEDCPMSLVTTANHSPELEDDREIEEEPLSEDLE
# [2] = target: T2, human FOXP2 (truncated, WT) (human, UniProt O15409 214-715); assay: MITOMI
# T2 sequence: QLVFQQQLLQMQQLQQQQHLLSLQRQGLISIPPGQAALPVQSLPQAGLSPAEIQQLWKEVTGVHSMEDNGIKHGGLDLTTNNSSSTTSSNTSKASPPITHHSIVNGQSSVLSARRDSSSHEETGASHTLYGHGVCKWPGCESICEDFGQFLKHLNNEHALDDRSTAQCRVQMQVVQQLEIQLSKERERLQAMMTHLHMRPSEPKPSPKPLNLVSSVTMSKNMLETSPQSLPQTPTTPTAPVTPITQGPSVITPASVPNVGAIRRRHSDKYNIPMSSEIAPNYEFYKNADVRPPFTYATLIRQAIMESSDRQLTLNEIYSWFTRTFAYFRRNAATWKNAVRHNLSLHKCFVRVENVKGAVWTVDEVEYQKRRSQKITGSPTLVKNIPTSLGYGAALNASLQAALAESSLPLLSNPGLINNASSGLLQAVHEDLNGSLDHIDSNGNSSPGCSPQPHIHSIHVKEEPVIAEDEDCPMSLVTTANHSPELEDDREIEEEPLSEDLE
binder,measurement,setting,value
oligonucleotide #175 (dsDNA) DNA 1: CGCCTGTTACGGCATCAGGGCTTTGGTTTGGGCGGGCTGCTTGTTTACCAATTGTCTCCGGCGGTATGAC DNA 2: GTCATACCGCCGGAGACAATTGGTAAACAAGCAGCCCGCCCAAACCAAAGCCCTGATGCCGTAACAGGCG,binding result,[1],binds
same,binding result,[2],binds
